{"source": "paper PMC10462243", "about": "(Research Square, 2023)", "binders": {"B1": {"name": "Plk4 CPB(581–808), purified (domain or fragment, UniProt O00444 581-808, looked up)", "chain": "GYQNRTLRSITSPLVAHRLKPIRQKTKKAVVSILDSEEVCVELVKEYASQEYVKEVLQISSDGNTITIYYPNGGRGFPLADRPPSPTDNISRYSFDNLPEKYWRKYQYASRFVQLVRSKSPKITYFTRYAKCILMENSPGADFEVWFYDGVKIHKTEDFIQVIEKTGKSYTLKSESEVNSLKEEIKMYMDHANEGHRICLALESIISEEERKTRSAPFFPIIIGRKPG", "notes": "Plk4 cryptic polo-box, residues 581–808; Two copies for each Vpr•VprBP in the SEC complex; The construct has a TEV site"}, "B2": {"name": "Vpr (insect cells, co-expressed with VprBP WD40-AR) (natural protein)", "chain": "MEQAPEDQGPQREPYNEWTLELLEELKSEAVRHFPRIWLHNLGQHIYETYGDTWAGVEAIIRILQQLLFIHFRIGCRHSRIGVTRQRRARNGASRS", "notes": "HIV-1 Vpr ORF, expressed on its own from a p10 promoter in the dual construct; also called 11-kDa Vpr; source: Tni-FNL insect cells, co-expressed with His-MBP-TEV-VprBP, purified (HisTrap, SEC)"}}, "assay_in_all_cases": "SEC; purified Vpr, VprBP(1057–1507), Plk4 CPB(581–808) and DDB1; HisTrap eluate of VprBP and Vpr digested with TEV, mixed with Plk4 CPB; SEC in 20 mM Tris-HCl pH 7.5, 100 mM NaCl, 10% glycerol; stoichiometry estimated from Coomassie-stained protein intensity", "key": {"[1]": {"target": "T1, Vpr•VprBP WD40-AR complex ( | HIV-1 (pNL4–3), UniProt Q9Y4B6;P12520)", "T1 construct": "VprBP (DCAF1) WD40 domain and acidic region; HIV-1 Vpr ORF; Chains as m38 and m37, formed by co-expression before Plk4 CPB was added; also called VprBP (WD40-AR)•Vpr complex; source: Tni-FNL insect cells, co-expressed, purified (HisTrap, TEV); not shown: His, N-terminal, cleaved; MBP, N-terminal, cleaved; copies: 1 + 1", "T1 sequence (Q9Y4B6 1057-1507, one chain of several)": "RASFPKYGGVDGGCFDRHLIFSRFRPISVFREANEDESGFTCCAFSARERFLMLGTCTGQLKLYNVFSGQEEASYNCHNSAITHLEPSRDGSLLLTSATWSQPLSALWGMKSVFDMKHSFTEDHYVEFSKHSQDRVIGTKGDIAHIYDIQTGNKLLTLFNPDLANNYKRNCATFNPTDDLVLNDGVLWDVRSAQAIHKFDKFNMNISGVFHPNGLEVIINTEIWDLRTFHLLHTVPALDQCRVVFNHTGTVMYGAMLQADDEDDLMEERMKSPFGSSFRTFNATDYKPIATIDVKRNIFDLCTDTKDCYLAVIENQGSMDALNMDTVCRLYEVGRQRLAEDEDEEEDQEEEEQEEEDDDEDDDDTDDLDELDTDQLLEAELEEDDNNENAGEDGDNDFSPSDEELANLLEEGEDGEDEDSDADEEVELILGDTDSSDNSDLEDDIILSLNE", "settings": "both partners purified"}, "[2]": {"target": "the molecule itself"}, "[3]": {"target": "B1", "settings": "both partners purified"}}, "data": [{"binder": "B1", "values": [{"measurement": "stoichiometry N", "setting": "[1]", "result": "~2"}, {"measurement": "binding result", "setting": "[2]", "result": "binds"}]}, {"binder": "B2", "values": [{"measurement": "binding result", "setting": "[3]", "result": "binds"}]}]}
